Blank lines part the entries; values can stand above or below the substance they belong to.
Experiments:
[1] = target: F-actin of the thin filaments in ghost muscle fibres (rabbit psoas) (rabbit (endogenous in m. psoas fibres)) (UniProt P68135)
[2] = target: F-actin of the thin filaments in ghost muscle fibres (rabbit psoas) (rabbit (endogenous in m. psoas fibres)) (UniProt P68135); test: incorporation into ghost muscle fibres, washing, SDS-PAGE; ghost fibres with thin filaments reconstructed with Tpm and TN, decorated with S1; absence of nucleotide
[3] = target: F-actin of the thin filaments in ghost muscle fibres (rabbit psoas) (rabbit (endogenous in m. psoas fibres)) (UniProt P68135); test: incorporation into ghost muscle fibres, washing, SDS-PAGE; ghost fibres with thin filaments reconstructed with Tpm and TN, decorated with S1; presence of ADP (2.5 mM ADP, 3 mM MgCl2)
[4] = target: F-actin of the thin filaments in ghost muscle fibres (rabbit psoas) (rabbit (endogenous in m. psoas fibres)) (UniProt P68135); test: incorporation into ghost muscle fibres, washing, SDS-PAGE; ghost fibres with thin filaments reconstructed with Tpm and TN, decorated with S1; presence of AMPPNP (16 mM AMPPNP, 8 mM MgCl2)
[5] = target: F-actin of the thin filaments in ghost muscle fibres (rabbit psoas) (rabbit (endogenous in m. psoas fibres)) (UniProt P68135); test: incorporation into ghost muscle fibres, washing, SDS-PAGE; ghost fibres with thin filaments reconstructed with Tpm and TN, decorated with S1; presence of ATP (5 mM ATP, 18 mM MgCl2, creatine phosphate and creatine kinase)
[6] = target: F-actin of the thin filaments in ghost muscle fibres (rabbit psoas) (rabbit (endogenous in m. psoas fibres)) (UniProt P68135); test: fluorescence intensity of the labelled protein in ghost muscle fibres (polarized fluorimeter); AF-Tpm-TN incorporated into the actin filaments of ghost fibres; Isum of the four polarized intensity components, n = 25; excitation 436 ± 5 nm, emission 500-600 nm
[7] = target: F-actin of the thin filaments in ghost muscle fibres (rabbit psoas) (rabbit (endogenous in m. psoas fibres)) (UniProt P68135); test: incorporation into ghost muscle fibres, washing, SDS-PAGE with densitometry; single rabbit psoas ghost fibres incubated with Tpm and TN in 50 mM KCl, 3 mM MgCl2, 1 mM DTT, 6.7 mM K, Na phosphate buffer, pH 7.0; unbound Tpm and TN washed out for 15 min; 8-10 fibres per gel lane, 12% SDS-PAGE, ImageJ

myosin subfragment-1 from rabbit fast skeletal muscle myosin (domain or fragment), sequence (Q28641 whole entry, the tested form may be a part): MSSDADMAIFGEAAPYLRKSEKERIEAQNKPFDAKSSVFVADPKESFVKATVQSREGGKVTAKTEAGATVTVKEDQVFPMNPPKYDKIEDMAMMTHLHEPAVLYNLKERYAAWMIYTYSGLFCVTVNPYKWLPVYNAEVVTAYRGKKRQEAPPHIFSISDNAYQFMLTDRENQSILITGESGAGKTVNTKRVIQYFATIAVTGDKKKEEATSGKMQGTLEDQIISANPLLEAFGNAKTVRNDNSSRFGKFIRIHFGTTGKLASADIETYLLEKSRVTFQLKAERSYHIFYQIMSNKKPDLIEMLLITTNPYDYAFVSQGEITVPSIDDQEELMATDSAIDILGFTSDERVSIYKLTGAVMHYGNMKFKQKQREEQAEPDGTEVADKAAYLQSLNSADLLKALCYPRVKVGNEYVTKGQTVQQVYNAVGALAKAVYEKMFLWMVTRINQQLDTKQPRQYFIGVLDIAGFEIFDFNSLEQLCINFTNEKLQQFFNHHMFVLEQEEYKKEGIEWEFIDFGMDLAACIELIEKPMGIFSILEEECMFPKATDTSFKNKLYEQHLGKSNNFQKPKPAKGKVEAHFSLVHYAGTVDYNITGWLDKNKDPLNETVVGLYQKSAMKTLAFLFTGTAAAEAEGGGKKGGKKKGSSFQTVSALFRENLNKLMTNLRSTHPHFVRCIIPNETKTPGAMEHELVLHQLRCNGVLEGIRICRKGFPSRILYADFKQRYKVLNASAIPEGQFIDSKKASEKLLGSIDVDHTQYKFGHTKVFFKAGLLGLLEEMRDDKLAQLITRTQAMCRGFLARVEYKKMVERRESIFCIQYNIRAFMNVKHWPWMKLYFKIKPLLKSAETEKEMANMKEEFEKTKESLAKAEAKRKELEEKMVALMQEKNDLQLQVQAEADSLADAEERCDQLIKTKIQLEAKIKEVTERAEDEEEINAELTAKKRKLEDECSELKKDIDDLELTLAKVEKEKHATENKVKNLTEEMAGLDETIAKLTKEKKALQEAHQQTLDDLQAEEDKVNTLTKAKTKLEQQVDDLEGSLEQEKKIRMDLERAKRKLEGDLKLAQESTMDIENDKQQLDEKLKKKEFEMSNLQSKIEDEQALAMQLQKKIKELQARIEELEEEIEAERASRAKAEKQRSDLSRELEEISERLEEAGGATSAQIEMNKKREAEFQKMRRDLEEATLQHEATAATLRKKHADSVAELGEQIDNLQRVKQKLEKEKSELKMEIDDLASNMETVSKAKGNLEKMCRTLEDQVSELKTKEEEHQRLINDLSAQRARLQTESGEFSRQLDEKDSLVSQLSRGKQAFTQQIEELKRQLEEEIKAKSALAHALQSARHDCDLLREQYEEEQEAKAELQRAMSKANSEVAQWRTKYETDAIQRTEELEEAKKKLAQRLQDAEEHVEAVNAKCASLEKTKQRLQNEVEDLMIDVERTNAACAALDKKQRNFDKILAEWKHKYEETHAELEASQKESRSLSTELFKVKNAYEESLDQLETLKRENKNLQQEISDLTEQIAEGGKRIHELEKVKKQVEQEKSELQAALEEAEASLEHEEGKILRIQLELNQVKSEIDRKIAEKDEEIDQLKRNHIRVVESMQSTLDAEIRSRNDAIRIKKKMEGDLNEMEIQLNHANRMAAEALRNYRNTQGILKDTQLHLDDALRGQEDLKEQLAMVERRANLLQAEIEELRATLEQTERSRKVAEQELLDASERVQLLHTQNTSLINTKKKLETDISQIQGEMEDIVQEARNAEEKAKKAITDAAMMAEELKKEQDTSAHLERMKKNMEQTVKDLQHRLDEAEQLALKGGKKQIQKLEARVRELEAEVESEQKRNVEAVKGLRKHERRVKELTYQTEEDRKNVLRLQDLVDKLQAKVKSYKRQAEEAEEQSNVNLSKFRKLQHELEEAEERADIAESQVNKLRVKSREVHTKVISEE

ΦE of the polarized fluorescence of AEDANS-S1 in ghost fibres containing ΔE139Tpm against fibres containing WTTpm; TN, high Ca2+, no nucleotide [1]: 0.4 ° | molar ratio of S1 to actin (1:x, value is x) (mol actin per mol S1) [2]: 5 | molar ratio of S1 to actin (1:x, value is x) (mol actin per mol S1) [3]: 5 | molar ratio of S1 to actin (1:x, value is x) (mol actin per mol S1) [4]: 8 | molar ratio of S1 to actin (1:x, value is x) (mol actin per mol S1) [5]: 14
Substance: myosin subfragment-1 from rabbit fast skeletal muscle myosin (domain or fragment)

fluorescence intensity Isum of the bound labelled Tpm [6]: 266
Substance: recombinant tropomyosin Tpm2.2 with the E139 deletion labelled with 5-IAF (natural protein)

amount bound, percent of the amount of WTTpm [7]: 85%
Substance: recombinant tropomyosin Tpm2.2 with the E139 deletion, ββ-homodimer (natural protein)

fluorescence intensity Isum of the bound labelled Tpm [6]: 236
Substance: recombinant wild-type tropomyosin Tpm2.2 labelled with 5-IAF (natural protein)
